Measurements published in article PMC10632424, “Low-noise fluorescent detection of cardiac troponin I in human serum based on surface acoustic wave separation”.

Experiments:
C-reactive protein (CRP) = target: T1, C-reactive protein (CRP) (UniProt P02741 19-224); assay: fluorescence recovery by displacement of AuNP-ssDNA (bead-immobilized probe); 20 ng/mL; negligible response; PBS pH 7.2, 30 min shaking, temperature not stated; probe folded in 1 mM MgCl2, 1x PBS pH 7.2; serum diluted 10x in PBS; details: protein: commercial; chain copies: 5; label: Texas Red; gold nanoparticle quencher; biotin on streptavidin PS beads; S2 pairs with S1[6-23]; S1 overhangs 5' 5 nt and 3' 17 nt
T1 sequence: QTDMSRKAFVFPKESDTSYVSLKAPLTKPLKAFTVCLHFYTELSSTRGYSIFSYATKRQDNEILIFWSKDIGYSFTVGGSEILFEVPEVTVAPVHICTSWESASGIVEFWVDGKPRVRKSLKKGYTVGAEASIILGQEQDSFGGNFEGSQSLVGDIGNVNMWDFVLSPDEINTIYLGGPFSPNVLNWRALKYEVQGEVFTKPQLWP

myoglobin (MYO) = target: T2, myoglobin (MYO) (UniProt P02144 2-154); assay: as above; details: protein: commercial; label: Texas Red; gold nanoparticle quencher; biotin on streptavidin PS beads; S2 pairs with S1[6-23]; S1 overhangs 5' 5 nt and 3' 17 nt
T2 sequence: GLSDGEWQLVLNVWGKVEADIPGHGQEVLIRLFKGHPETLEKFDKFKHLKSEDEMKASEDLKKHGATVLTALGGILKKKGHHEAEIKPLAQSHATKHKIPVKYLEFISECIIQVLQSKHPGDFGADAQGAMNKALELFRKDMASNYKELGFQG

[1] = target: cardiac troponin I (cTnI) (human, UniProt P19429 2-210); assay: fluorescence recovery by displacement of AuNP-ssDNA (bead-immobilized probe); PBS, cTnI 0.2-60 ng/mL; LOD 44 pg/mL; PBS pH 7.2, 30 min shaking, temperature not stated; probe folded in 1 mM MgCl2, 1x PBS pH 7.2; serum diluted 10x in PBS; details: protein: commercial; label: Texas Red; gold nanoparticle quencher; biotin on streptavidin PS beads; S2 pairs with S1[6-23]; S1 overhangs 5' 5 nt and 3' 17 nt
Sequence of cardiac troponin I (cTnI) (P19429 2-210): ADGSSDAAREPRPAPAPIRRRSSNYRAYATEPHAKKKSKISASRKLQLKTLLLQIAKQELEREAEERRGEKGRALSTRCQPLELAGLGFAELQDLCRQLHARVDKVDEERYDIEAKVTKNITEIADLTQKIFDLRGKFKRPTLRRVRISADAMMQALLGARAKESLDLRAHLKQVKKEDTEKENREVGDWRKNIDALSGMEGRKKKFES

B1: cTnI aptamer probe hybridized with AuNP-ssDNA (mixed)
DNA 1: CGTGCAGTACGCCAACCTTTCTCATGCGCTGCCCCTCTTA
DNA 2: GAGAAAGGTTGGCGTACT
modifications: 5'-biotin and 3'-Texas Red on S1; 5' SH-C6 on S2 (gold nanoparticle)
B1: no binding (C-reactive protein (CRP)); no binding (myoglobin (MYO)); binds [1].
